Experiment: soluble on expression in E. coli; label from the status in PepcDB or PDB records

Row | Sequence | soluble on expression in E. coli
1 | MKSILEQLSSITVVVADTGDLDAIKKFQPRDATTNPSLILAAAKNPDYIKLIDQALESSRKSLPAGFSESELIKETIDQVSVFFGKEILNLISGRVSTEVDARLSFDTEATVTKARKLINHYKSFGINKERILIKIASTWEGIKAAEILEKEGIKCNLTLLFNFCQAVACANAKITLISPFVGRILDWHKAKTGKDNFAGCEDPGVISVTKIYNYFKEKGFKTEVMGASFRNIDEIKELAGCDLLTIAPKFLDELNREEGELIKKLDEDTQSQSSIDYKFDEKDFRLSMLEDQMASEKLSEGITGFSKAIEELEELLLKRLSEINNQKLISTT | not soluble
2 | MNLDELLLLIEKNRSQLSKIDDDFYEKLRERIAELEEMKSSAGESDFFRYEDEIRTLKRLQRKIFELRTGKIISAAWAEVCGQQFSSDVENMCSDERVFFKKLIDIIKEFKRSILEGGKRKISDRVLVRIKKDVEIQGADGKTYKLRREDVVTLPQLNADALIKGGIAERIEVKEDEVSQEGLEHHHHHH | soluble
3 | MVIVGGQDRSISTRQGAAMTDTPPPETDAAPEVPGAAPGKTLTPAARRALEEAAARRAAEAALSLPPEEGGRDGPEPTRFGDWEKKGVAVDFLEHHHHHH | not soluble
4 | MVTLEDMSQYLDEFLADARDRIDSLSNAILTLEKIVKEGGSEEEKTELINQIFRDAHTLKGTAATMGFMKLSETAHKMENIFDAIRNSQLELTPELVDLVLDFLDAIDAMVNNIEESGNEGDVDVSDLFERADEFLGGSKKEIKPEEKPKEAEKKEEKVAEEVPSAEGKVYYIKVKFQKDAPLKGVRAFLILSDLEERGEVIWTNPGREIIENGNLEGDVVEFRIVSETPKEELETVIKRHPEVESVEIVEEKKKEEAGEKAVEGKEYVVRVYFQPDTPLKGPRSYLILNDLEKIGEILSTNPSRQDIEEGNLIENKFFEVVLRTSESKEKISEILKKHPDVLNFTITEKEEEKKEEKKEAKKQPPKQPKKPPIIETPKVKISRVIKIDVGHLDKLMNLVGELVITKGRLEQIGERLGDRELFEALSTLSRLLTELQDEIMEMRLTPIAEVFNKFPRMVRDLARKMGKEVEFVMEGADIEVDRTILEKLGDALVHLLRNAVDHGIEPPEERVKLGKPRAGRVELIAKREKNHVVIIVRDDGRGIDPEKVKRKAVERGLITPEEAANLSDEEAINLIFLPGFSTADKVTDVSGRGVGMDVVKEVVKSMNGSISVQTEVGKGTTFILKLPISMAIIQALLIRVEDETYAIPINNILETIEVDPSILKTVGGKPVIVLRGEIIPVIMLHELFGLPAPQVDRFPAIIVDHGAQKVAIGVDELLHKRDIVIKSLGKFLSNVRGFAGATILGDGSVVLIIDIGGLLGGGYSG | soluble
5 | NQLSGLHSMEEQLAKKLQIKKCLVVQGDSDDTPWVREEMGRVAVEQLDMALTEKRNIVAVMGGSTMATVAEMMTTDFAKGRELLFVPGRGGIGEDLDNQANTICDKMATKTNTKHRVLYVPEQLGEEAYRSLLKEPAIQEGLRLVQSANAIILGIGDALAMAKRRHTGEDVLEKIIRRKAVGEAFGYYFDEQGEVVHKVPTFGLQFEDLAQIPHIIAVAGGTSKAKAIKSYMKSAPKNTILITDEGAAKSLLK | soluble
6 | MSILVTRPSPAGEELVSRLRTLGQVAWHFPLIEFSPGQQLPQLADQLAALGESDLLFALSQHAVAFAQSQLHQQDRKWPRLPDYFAIGRTTALALHTVSGQKILYPQDREISEVLLQLPELQNIAGKRALILRGNGGRELIGDTLTARGAEVTFCECYQRCAIHYDGAEEAMRWQAREVTMVVVTSGEMLQQLWSLIPQWYREHWLLHCRLLVVSERLAKLARELGWQDIKVADNADNDALLRALQLEHHHHHH | not soluble
7 | MGSDKIHHHHHHMRVAMWSGPRNLSTAMMYAFGNRPDCEAWDEPFYAAYLAQTGLDHPMRQTVLASQPPHYGAVVERLLATPTQPVQYLKLMTHHMLPDTSLTWATGFANIHLIRHPARVIASYTAKRAEITLDDIGFPQAARLHTALPGPIIDSADIRAAPEAMLRSLCEAIDLPFDPAMLHWPAGPKPFDGAWAPHWYDAVHRSTGFAAAEGHLPEVPDHHRGLLKDALDIYETLHQSRLRP | not soluble
8 | MAHHHHHHMCPYEERQELRISMGFAGRRPNLTFTSDTMDAHAYLVRHWALNAIAESAGKGMSVQRDSIPFLARSQHSIVNENKMTFLRPDGKIKYNIPKHWLLESDSSVNFLNASPGPVLPSEADNLLVCCTIYEERPEKCMRVYRVRTREDYIAVNQEILAAKCQLLEMNEVNGRNSMRISSRSTRASQQKERLGQTQRVLRTSMERKSINTAADSAGLPFSAFALSGLVSNAAFTIHKTDTSRQINIIHSFLRTEPTCKATIARSIVGNNVTLGPDVRITNSIILDNAEIGAGAIISNSVIGSSAMVNSGVRVVSCTVGPQCLVESNETDRVIRA | not soluble
9 | HHHHHHHSEMTPREIVSELDKHIIGQDNAKRSVAIALRNRWRRMQLNEELRHEVTPKNILMIGPTGVGKTEIARRLAKLANAPFIKVEATKFTEVGYVGKEVDSIIRDLTDAAVKMVRVQAIEKNRYRAEELAEERILDVLIPPAKNNWGQTEQQQEPSAARQAFRKKLREGQLDDKEIEIDLAAAPMGVEIMAPPGMEEMTSQLQSMFQNLGGQKQKARKLKIKDAMKLLIEEEAAKLVNPEELKQDAIDAVEQHGIVFIDEIDKICKRGESSGPDVSREGVQRDLLPLVEGCTVSTKHGMVKTDHILFIASGAFQIAKPSDLIPELQGRLPIRVELQALTTSDFERILTEPNASITVQYKALMATEGVNIEFTDSGIKRIAEAAWQVNESTENIGARRLHTVLERLMEEISYDASDLSGQNITIDADYVSKHLDALVADEDLSRFIL | soluble
10 | TGEESLQQVAMRASRLGLPKEHLKMLSETNVDKICQIAEKEQPRIMVIDSIQVMHVSDVQSSPGSVAQVRESATALTRYAKQNNVAVFIVGHVTKDGTLAGPKVLEHIIDCSVLLDGGTDSRFRTLRSHKNRFGAVNELGVFAMTGQGLKEVSNPSAIFLSRGEEETSGSSVMVVWEGTRPLLVEIQALVDYSQLANPRRVAVGLEQNRLSLLLAVLHKHGGLQMADQDVFVNVVGGV | not soluble
11 | MSLKGYPFLDKANAPFVDRHVTKAGEIFYPWDGKRIDGFGLIGAPLSKSSISHSGASFAPTVIRKCLHAFSTYSVEEDLDLAQLKLTDLGDITMHVTDIVGSQARIEETMTKLLENEQNWQPIVLGGDHSISFPSIKAFASAKGTIGVIQFDAHHDLRNLEDGGPCNGTPFRSLLETGSLVGEHLVQIGIRDFSNSYPYRKYAEKHGVKVYTMKDVNARGLLTILDEAVAKLKRSVDVIYVSVDMDVLDQAHAPGCPAIGPGGMDSTTLLQGIFHLGKDSLVQGMDIVEVDPTLDFREMTSRAAAHVILNYLKGKCIKSEGHHHHHH | soluble
12 | MRDTMEILRTENIVKYFGEFKALDGVSISVNKGDVTLIIGPNGSGKSTLINVITGFLKADEGRVYFENKDITNKEPAELYHYGIVRTFQTPQPLKEMTVLENLLIGEINPGESPLNSLFYKKWIPKEEEMVEKAFKILEFLKLSHLYDRKAGELSGGQMKLVEIGRALMTNPKMIVMDQPIAGVAPGLAHDIFNHVLELKAKGITFLIIEHRLDIVLNYIDHLYVMFNGQIIAEGRGEEEIKNVLSDPKVVEIYIGE | soluble
13 | VDYSRTETLQFEDDEYYYYVKAVPKVGVTLPEKQVKHITEPHEEQPKEAKAAVNLKPEPMVQETVAIDTSQIQEADLEKNVDELLLTQSLNEELRQNQNEPEDDLSLTKSLGDLWTKKPGSGE | not soluble
14 | MSASQKEGKLSTATISVDGKSAEMPVLSGTLGPDVIDIRKLPAQLGVFTFDPGYGETAACNSKITFIDGDKGVLLHRGYPIAQLAENASYEEVIYLLLNGELPNKAQYDTFTNTLTNHTLLHEQIRNFFNGFRRDAHPMAILCGTVGALSAFYPDANDIAIPANRDLAAMRLIAKIPTIAAWAYKYTQGEAFIYPRNDLNYAENFLSMMFARMSEPYKVNPVLARAMNRILILHADHEQNASTSTVRLAGSTGANPFACIAAGIAALWGPAHGGANEAVLKMLARIGKKENIPAFIAQVKDKNSGVKLMGFGHRVYKNFDPRAKIMQQTCHEVLTELGIKDDPLLDLAVELEKIALSDDYFVQRKLYPNVDFYSGIILKAMGIPTSMFTVLFAVARTTGWVSQWKEMIEEPGQRISRPRQLYIGAPQRDYVPLAKR | soluble
15 | MGSDKIHHHHHHMREDIVVIGGYGQVGRAICRLLARRYAGRVYAAGRNFEKANRFSLETDGEVQPLQVDIHQPKKAFEALNQPKVVIVCIDQDHTEFARLCAKNGIDYLDITANGKFLKELGGLNRGAVKHTGVISVGLAPGITNLLVEQAVRMFEQVHQVDISILLGLGDEHGVGAMEWTFQQINQSFDVMVQNDWRQVKSFTDRKQVSFGKAIGNHSVYRFPFSDQQTLARTLHLPTVSTRLCFDSRLVTAVVATMRRLHITKLLSLPAVRKVLTTLLNVFPYGSEQYGVRVEVKGVRKDEKEEVYSLFTGENEALMTAHVASAVAFALYEHPCPKGVFHIEELFELVFIDQHISLTLKGTEFSYPLPTPKQFVQNETSICSQNHS | not soluble
16 | MKYTVITGASSGIGYAAALAFASRGKNLVLVARRQEELNGLKLKINEMHPELDVVIRKTDLSVTEDVYKLYESLQAFQIETWINNAGFGNFASIAEQNLNKIETMLHVNIEALTILSSLFVRDYSMIDGTQLINVSSGGGYTIVADAVTYCATKFYVSAFTEGLSHELKEQGAKLQAKVLAPAATETEFAKRSFDIDEFQYDNVVPKFHTAKQMAQFMLDLYDNDKVVGIVDGLTYNYELKDPLYNFAVRQKNSNS | not soluble
17 | TVEKSVVFKAEGEHFTDQKGNTIVGSGSGGTTKYFRIPAMCTTSKGTIVVFADARHNTASDQSFIDTAAARSTDGGKTWNKKIAIYNDRVNSKLSRVMDPTCIVANIQGRETILVMVGKWNNNDKTWGAYRDKAPDTDWDLVLYKSTDDGVTFSKVETNIHDIVTKNGTISAMLGGVGSGLQLNDGKLVFPVQMVRTKNITTVLNTSFIYSTDGITWSLPSGYCEGFGSENNIIEFNASLVNNIRNSGLRRSFETKDFGKTWTEFPPMDKKVDNRNHGVQGSTITIPSGNKLVAAHSSAQNKNNDYTRSDISLYAHNLYSGEVKLIDDFYPKVGNASGAGYSCLSYRKNVDKETLYVVYEANGSIEFQDLSRHLPVIKSYN | soluble
18 | MGSDKIHHHHHHSTVAIALDCKGLGSPIPGTAPLCKDLTLMATGNKPSAAFVKNTRAAYGSVLQGYHNQVKPHVAPVQAAVSKKWKQFAKSDVGGKVEKIAMNIHAWIVDKWVKIQRFVQQTWNNVAAWWKKNGQKQFGPALEGFVLGVKMVFQVVADALRSVGALLVHFFARAKTFFVAFADGGFNAAMNTLNH | not soluble
19 | SMPHSVTLRGPSPWGFRLVGGRDFSAPLTISRVHAGSKAALAALCPGDLIQAINGESTELMTHLEAQNRIKGCHDHLTLSVSRPEGESDL | soluble
20 | MNENQLSKRLATVGDLIPRGSRLADIGSDHAYLPVALMLENKLSFAVAGEVVEGPYQSAKTQVSKSNLTDKIIVRLANGLDAIEPEDQIDVISICGMGGTLIRDILEAGRKKNRLTGKERLVLQPNIGEPTLRRWLMANDYSIIDETIVEENRKLYEIIVAEKTEQSVSYTDQELLFGPVLIKKQGPVFTKKWQRELKQRKTVLAQLAKASGEHIEKQAKLQQDQQLIEEVLANGCER | not soluble
21 | MAHHHHHHMAVNARHDLLYECLGLVYELYGGLAEDLQELHDDPLHPHFHRRIARIKRDRERIATELDKRYAKLHPTVKTVYDAFLVRRYYHLADWIEHVERKRERLINDLSPDVMEKTMRMRGIAEQYLRHLRALEHALYEDPLMGLLGGDRGTNVLDQYTPGELAMLRQKAAYFRNMRRFGANQLDADMHTH | not soluble

— the DeepSol protein solubility set
